Assay results published in US11723946B2, “Methods for regulating transcription of multiple genes and expression of multiple targets” (CHINA MEDICAL UNIVERSITY, priority 2014, dated 2023).
Read-outs that look alike come from different tables or passages of the source.

Key:
[1] = test system: NF-κB; assay: Ex vivo bioluminescent imaging of organs, LPS-induced NF-κB/luc transgenic mice; format: in vivo
Experimental: The mice of the three groups manipulated in example 3 were abdominally injected with 150 mg/Kg luciferin. After luciferin injection for 5 minutes, the mice were sacrificed and the tissues including brain, heart, lung, liver, spleen, stomach, kidney, ovary and intestine were rapidly removed. The collected tissues were placed in the IVIS Imaging System-200 Series (Xenogen, Hopkinton, Mass.) and imaged with the same setting used for in vivo bioluminescent imaging.
In the table 2, the average of luciferin value in the mice of the group 2 was divided to average of luciferin value in the mice of the group 1 to obtain the fold change. In table 3, the average of luciferin value in the mice of the group 3 was divided to the average of luciferin value in the mice of the group 2 to obtain the fold change.

[2] = Hepatic histology (H&E, oil red-O) in high fat diet mice; format: in vivo; conditions: 10 mmol/kg peritoneal injection twice weekly, 4 weeks, group 3 vs group 2
Experimental: 30 wild-type FVB mice were randomly divided into three groups, wherein the mice of the group 1 were the blank group that were fed with normal condition. The mice of the control group (the group 2) and the experimental group (the group 3) were fed with high fat diet. […] The mice in the group 2 and the group 3 were peritoneally injected with 100 μl of PBS.
After the administration, livers in the mice of the each group were collected for the histology sections. The hepatic histology of livers in the mice of the each group was […] for H&E staining and oil red-O staining to examined the lipid accumulation in liver, respectively. Furthermore, the product of lipid oxidation in hepatocytes was examined by IHC staining described in example 3 with antibodies against 4-hydroxynonenal ([…]) or malondialdehyde (MDA) on the hepatic tissues of the each group.

[3] = test system: Kidney (Diabetes; Nephrosis genes); conditions: Down-regulated, 2.5 mmol/kg daily, 7 days
Experimental: (§1) The wild-type FVB mice were divided into the control group and the experimental group, wherein the mice in the experimental group were daily administered with 20 μl peptide-containing solution that contains 2.5 mmol/kg of the present peptide for 7 days. Moreover, the mice in the control group were daily administrated with 20 μl PBS solution for 7 days.
(§2) After the daily administration, the tissues of column, muscle, fat pad, liver and kidney were collected for analyzing the expression of multiple targets by system biology analysis. Herein, the altered expressions of the targets in the genome were determined by using DNA microarray which is a well-established tool for systematic biology analysis. Furthermore, the results of the DNA microarray were further categorized and analyzed by bioinformatics analysis to determine the effect and affected signaling pathways of the present polypeptide. Therefore, it can determine the downstream targets of the present polypeptide comprising the amino acid sequence of SEQ ID No. 1 by the mechanism investigation through microarray analysis and gene expression profile. The detail steps including:
(§3) (1) RNA preparation: The total RNA was extracted from the tissue by using RNeasy Mini Kit (Qiagen, Valencia, Calif., USA). The amount of the extracted total RNA was measured by Beckman DU800 spectrophotometer (Beckman Coulter, Fullerton, Calif., USA). In the next step, the quality of the RNA sample with A260/A280 ratio more than 1.8 was further evaluated by Agilent 2100 bioanalyzer (Agilent Technologies, Santa Clara, Calif., USA). When with the RNA integrity number of the sample is more than 8.0, it would be analyzed by the following microarray analysis.
(§4) (2) DNA microarray analysis: The procedure of DNA microarray analysis was conducted according to the reference (Cheng, 2007). Briefly, 5 μg of total RNA was amplified by in vitro transcription using MessageAmp™ aRNA kit (Ambion). In the following, the fluorescence dye, Cy5, was chemically labeled on the amplified RNA (aRNA). After the labeling, the fluorescence labeled aRNA was hybridized with Whole Genome OneArray™ in hybridization buffer (Phalanx Biotech Group, Taiwan) on cover slide. Following the hybridization reaction at 50° C. over-night, the non-specific binding on the chip was washed by three washing steps. The washed chip was dried by centrifugation and was scanned by Axon 4000 scanner (Molecular Devices, Sunnyvale, Calif., USA) to measure the fluorescence signals. The fluorescence intensity of Cy5 on each spots was further analyzed by genepix 4.1 (Molecular Devices). First, the signals of each spot were adjusted by deducting the intensity of background. In the next step, the spots including the probes of internal controls or the spots with the signal-to-noise ratios less than […] would be removed. The qualified spots were normalized by limma package which is belonged to R console (Smyth, 2005).
(§5) (3). Analysis of the functional mechanism and affected signaling pathways by using bioinformatics software: The altered downstream targets, functional mechanisms, affected signaling pathways and the disease relevance were investigated by using the bioinformatics software such as Medical Subject Headings (MeSH, http://www.nlm.nih.gov/mesh/meshhome.html) and BiblioSphere Pathway Edition.

[4] = test system: Liver (Fatty liver genes); conditions: Down-regulated, 2.5 mmol/kg daily, 7 days
Experimental: as §1, §2, §3, §4, §5

[5] = test system: Column (IL-1β and TNF signaling pathway genes); conditions: Down-regulated, 2.5 mmol/kg daily, 7 days
Experimental: as §1, §2, §3, §4, §5

[6] = group 3 (LPS + 0.5 mg/Kg polypeptide IP) vs group 2 (LPS), down-regulation
[7] = group 3 (LPS + 0.5 mg/Kg polypeptide IP) vs group 2 (LPS), up-regulation

B1: present polypeptide: polypeptide comprising the amino acid sequence of SEQ ID No. 1; made by peptide synthesis, recombinant expression or extraction from Momordica charantia (peptide, listed as Artificial synthsis)
chain: SRCQGKSSWPQLVGSTGAAAKAWIERENPRVRAVIIKVGSGATKDFRCDRVRVWVTERGIVARPPTIG
luminescent intensities detected from lung, liver, kidney and intestine ([1]; experimental group (group 3) compared with control group (group 2)): obviously decreased
Fold change of the luciferin value, Intestine [1, 6]: 1.96
Fold change of the luciferin value, Kidney [1, 6]: 1.08
Fold change of the luciferin value, Liver [1, 6]: 1.57
Fold change of the luciferin value, Lung [1, 6]: 1.68
Fold change of the luciferin value, Brain [1, 7]: 1.40
Fold change of the luciferin value, Heart [1, 7]: 1.13
Fold change of the luciferin value, Ovary [1, 7]: 1.17
Fold change of the luciferin value, Spleen [1, 7]: 1.08
Fold change of the luciferin value, Stomach [1, 7]: 1.11
lipid accumulation in the liver [2]: less lipid accumulation
Fold, Apoc3 [3]: 2.5 folds
Fold, Ctla4 [3]: 1.65 folds
Fold, Fabp2 [3]: 1.62 folds
Fold, Fgb [3]: 1.91 folds
Fold, Hp [3]: 2.35 folds
Fold, Aldh2 [4]: 2.5 folds
Fold, Ctla4 [4]: 1.56 folds
Fold, Cyp17a1 [4]: 1.52 folds
Fold, Mmp2 [4]: 2.11 folds
Fold, Mttp [4]: 3.53 folds
Fold, Sod2 [4]: 1.71 folds
Fold, Ccl2 ([5]; IL-1β signaling pathway): 1.71 folds
Fold, Cdh2 ([5]; IL-1β signaling pathway): 1.73 folds
Fold, Icam1 ([5]; IL-1β signaling pathway): 2.27 folds
Fold, Pecam1 ([5]; IL-1β signaling pathway): 1.99 folds
Fold, Tnfrsf11b ([5]; IL-1β signaling pathway): 2.74 folds
Fold, ADIPOQ ([5]; TNF signaling pathway): 1.78 folds
Fold, Bcl3 ([5]; TNF signaling pathway): 1.72 folds
Fold, CD40 ([5]; TNF signaling pathway): 1.79 folds
Fold, Casp3 ([5]; TNF signaling pathway): 1.71 folds
Fold, Ikbke ([5]; TNF signaling pathway): 1.95 folds
Fold, Irs1 ([5]; TNF signaling pathway): 1.73 folds
Fold, Ltf ([5]; TNF signaling pathway): 1.99 folds
Fold, Mapk3 ([5]; TNF signaling pathway): 2.32 folds
Fold, Mapk9 ([5]; TNF signaling pathway): 1.53 folds
Fold, Rxra ([5]; TNF signaling pathway): 1.89 folds
Fold, Socs1 ([5]; TNF signaling pathway): 2.46 folds
Fold, Tnfrsf11b ([5]; TNF signaling pathway): 2.74 folds
